Measured values from patent US20260209362A1 (VIB VZW, published 2026).

T1: human IL-12Rβ2 expressed on cells (human, UniProt Q99665 24-862)
T1 construct: the cell lines are described by plasmid or cDNA number only; also called hIL-12RB2; HEK293T transiently transfected with human IL-12Rβ2
T1 sequence: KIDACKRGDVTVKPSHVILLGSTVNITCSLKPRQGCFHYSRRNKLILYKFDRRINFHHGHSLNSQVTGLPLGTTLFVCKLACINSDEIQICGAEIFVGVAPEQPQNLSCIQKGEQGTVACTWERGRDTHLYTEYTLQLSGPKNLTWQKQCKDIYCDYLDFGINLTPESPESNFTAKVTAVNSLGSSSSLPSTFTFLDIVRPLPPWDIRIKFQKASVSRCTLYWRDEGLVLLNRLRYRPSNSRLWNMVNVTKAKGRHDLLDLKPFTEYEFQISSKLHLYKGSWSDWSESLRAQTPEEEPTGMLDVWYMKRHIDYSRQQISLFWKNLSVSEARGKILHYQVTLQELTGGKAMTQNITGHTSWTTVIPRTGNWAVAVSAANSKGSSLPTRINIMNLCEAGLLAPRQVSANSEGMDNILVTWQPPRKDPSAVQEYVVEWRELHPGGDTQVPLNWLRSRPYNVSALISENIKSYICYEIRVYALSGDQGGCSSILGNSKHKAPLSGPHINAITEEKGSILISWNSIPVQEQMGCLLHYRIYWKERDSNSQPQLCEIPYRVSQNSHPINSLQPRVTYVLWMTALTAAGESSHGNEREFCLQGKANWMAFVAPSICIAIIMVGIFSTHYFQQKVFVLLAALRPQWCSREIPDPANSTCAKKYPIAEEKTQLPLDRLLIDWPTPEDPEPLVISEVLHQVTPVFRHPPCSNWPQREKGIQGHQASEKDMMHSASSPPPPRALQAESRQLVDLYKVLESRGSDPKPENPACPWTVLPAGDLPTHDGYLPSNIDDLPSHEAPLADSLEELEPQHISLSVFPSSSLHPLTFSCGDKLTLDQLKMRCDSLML

T2: biotinylated mouse recombinant IL-12Rβ2 (produced in-house) (mouse, UniProt P97378 24-637, random biotinylated)
T2 construct: Soluble recombinant protein used for panning, ELISA and BLI; also called mIL-12RB2; mIL12RB2
T2 sequence: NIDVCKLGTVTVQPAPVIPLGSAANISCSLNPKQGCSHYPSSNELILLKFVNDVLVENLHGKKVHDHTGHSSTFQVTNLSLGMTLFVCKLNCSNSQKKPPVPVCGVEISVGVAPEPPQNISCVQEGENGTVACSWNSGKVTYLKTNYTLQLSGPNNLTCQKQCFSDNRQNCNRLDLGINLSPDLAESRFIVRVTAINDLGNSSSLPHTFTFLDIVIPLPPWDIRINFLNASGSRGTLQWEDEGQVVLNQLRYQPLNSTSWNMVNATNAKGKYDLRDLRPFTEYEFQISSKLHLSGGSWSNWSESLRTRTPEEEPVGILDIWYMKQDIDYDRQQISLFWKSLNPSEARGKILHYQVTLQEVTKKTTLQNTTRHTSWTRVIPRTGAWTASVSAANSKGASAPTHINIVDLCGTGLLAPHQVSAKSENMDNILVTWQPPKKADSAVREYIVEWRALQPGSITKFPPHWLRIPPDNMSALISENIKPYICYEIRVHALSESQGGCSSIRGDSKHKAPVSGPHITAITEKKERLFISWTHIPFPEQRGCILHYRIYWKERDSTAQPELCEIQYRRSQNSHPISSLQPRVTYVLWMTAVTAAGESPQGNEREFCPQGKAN

T3: biotinylated human recombinant IL-12Rβ2 (produced in-house) (human, UniProt Q99665 24-622, random biotinylated)
T3 construct: Soluble recombinant protein used for panning, ELISA and BLI; also called hIL-12RB2; hIL12RB2
T3 sequence: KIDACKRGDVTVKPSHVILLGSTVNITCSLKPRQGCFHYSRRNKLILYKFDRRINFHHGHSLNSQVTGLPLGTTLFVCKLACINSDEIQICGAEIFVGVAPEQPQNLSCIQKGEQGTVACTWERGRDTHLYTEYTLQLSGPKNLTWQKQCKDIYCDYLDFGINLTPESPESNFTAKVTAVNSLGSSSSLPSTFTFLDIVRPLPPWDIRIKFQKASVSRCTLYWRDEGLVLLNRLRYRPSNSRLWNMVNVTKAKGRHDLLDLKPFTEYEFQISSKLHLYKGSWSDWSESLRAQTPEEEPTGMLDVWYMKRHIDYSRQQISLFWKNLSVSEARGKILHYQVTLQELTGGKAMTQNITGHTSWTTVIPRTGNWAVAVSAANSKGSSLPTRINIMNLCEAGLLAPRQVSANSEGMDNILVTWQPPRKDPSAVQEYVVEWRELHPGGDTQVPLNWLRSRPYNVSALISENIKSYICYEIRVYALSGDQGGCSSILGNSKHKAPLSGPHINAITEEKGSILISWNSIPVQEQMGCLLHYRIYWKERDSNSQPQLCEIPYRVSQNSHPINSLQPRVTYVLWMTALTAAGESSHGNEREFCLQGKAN

T4: biotinylated recombinant human IL-12Rβ2 (human, UniProt Q99665 24-622, random biotinylated)
T4 construct: Recombinant protein produced in-house, biotinylated; also called hIL-12RB2; human IL-12RB2
T4 sequence: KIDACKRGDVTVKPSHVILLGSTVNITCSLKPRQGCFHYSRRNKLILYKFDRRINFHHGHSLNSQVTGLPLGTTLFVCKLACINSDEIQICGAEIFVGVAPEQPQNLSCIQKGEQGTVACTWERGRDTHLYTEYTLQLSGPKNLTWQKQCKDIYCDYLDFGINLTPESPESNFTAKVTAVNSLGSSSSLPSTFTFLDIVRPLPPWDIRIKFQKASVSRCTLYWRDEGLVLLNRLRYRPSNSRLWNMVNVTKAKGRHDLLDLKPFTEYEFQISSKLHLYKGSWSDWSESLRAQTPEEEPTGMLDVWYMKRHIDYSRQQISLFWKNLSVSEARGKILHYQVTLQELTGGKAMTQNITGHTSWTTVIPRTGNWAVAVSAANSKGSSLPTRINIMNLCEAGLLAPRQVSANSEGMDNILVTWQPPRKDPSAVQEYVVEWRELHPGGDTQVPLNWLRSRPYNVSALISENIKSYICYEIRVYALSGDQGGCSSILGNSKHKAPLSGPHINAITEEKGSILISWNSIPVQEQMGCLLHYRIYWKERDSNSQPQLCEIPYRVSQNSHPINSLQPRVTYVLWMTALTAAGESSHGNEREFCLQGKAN

T5: biotinylated recombinant mouse IL-12Rβ2 (mouse, UniProt P97378 24-637, random biotinylated)
T5 construct: Recombinant protein produced in-house, biotinylated; also called mIL-12RB2; mouse IL-12RB2
T5 sequence: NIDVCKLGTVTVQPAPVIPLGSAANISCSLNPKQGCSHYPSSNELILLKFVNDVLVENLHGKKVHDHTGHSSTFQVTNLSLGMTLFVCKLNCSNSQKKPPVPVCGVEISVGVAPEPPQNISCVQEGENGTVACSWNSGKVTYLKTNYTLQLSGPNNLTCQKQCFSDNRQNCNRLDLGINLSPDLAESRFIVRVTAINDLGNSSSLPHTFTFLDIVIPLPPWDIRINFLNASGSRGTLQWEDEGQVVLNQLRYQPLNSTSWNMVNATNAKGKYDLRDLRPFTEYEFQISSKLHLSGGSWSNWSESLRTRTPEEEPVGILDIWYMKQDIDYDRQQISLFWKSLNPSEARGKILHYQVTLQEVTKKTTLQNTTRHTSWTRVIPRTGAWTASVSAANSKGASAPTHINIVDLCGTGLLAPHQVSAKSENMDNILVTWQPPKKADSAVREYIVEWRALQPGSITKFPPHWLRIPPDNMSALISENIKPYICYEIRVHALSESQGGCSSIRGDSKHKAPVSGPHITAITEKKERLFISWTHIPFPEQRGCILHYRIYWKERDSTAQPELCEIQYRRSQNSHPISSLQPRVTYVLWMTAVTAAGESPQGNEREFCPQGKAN

B1: anti-IL-12Rβ2 VHH clone 3CRHS128 (clone ID 20432) (VHH)
VHH: QVQLQESGGGLVQPGGSLRLSCAASGFTFSTSGMHWFRQAPGKGLEWVSSIGATVDNSYYASSVKGRFTISRDNAKNTLYLLMNSLKSEDTAVYYCSKDPTGSSRGQGTQVTVSS
notes: Tested as periplasmic extract; not shown: C-terminal HA tag
B2: anti-IL-12Rβ2 VHH clone 20391 (VHH, not shown: small tags and cut ends)
VHH: QVQLQESGGGLVQAGGSLRLSCAASGRTVDSYAMGWFRQTPGKEREFVAASWGGGSTYYADSVKGRFTISRDNVKNTMYLQMDSLKPEDTAVYYCAAGPTYYSGPINDNWEGRYDSWGQGTQVTVSS
notes: tested as periplasmic extract; also called 3CRH93
B3: anti-IL-12Rβ2 VHH clone 3CRHS54 (clone ID 20422) (VHH)
VHH: QVQLQESGGGLVQPGGSLRLSCTASGSIVSIYNMDWYRQAPGNEREWVASITSSGDPYYDGSAKGRFTISRDNAKMTVYLQMNSLEPEDTAVYFCKVPTEKGNYWGQGTQVTVSS
notes: Tested as periplasmic extract (P.E.) from the pMECS vector; not shown: C-terminal HA tag
B4: anti-IL-12Rβ2 VHH clone 3CRHS9 (clone ID 20415) (VHH)
VHH: QVQLQESGGGLVQPGGSLRLSCTASGSIVSIYNMDWYRQAPGNEREWVASITSSGDPYYDGSAKGRFTISRDNAKMTVYLQMNSLKPEDTAVYYCKVPTEKGNYWGQGTQVTVSS
notes: Tested as periplasmic extract; also called 3CRMS9; not shown: C-terminal HA tag
B5: anti-IL-12Rβ2 VHH clone 20358 (VHH, not shown: small tags and cut ends)
VHH: QVQLQESGGGSVQPGGSLRLSCGASGFTFSSFGMHWFRQAPGKGQEWAATISSSGGTTYYSDSVKGRFTISRDNAKNTLYLQMNSLKPEDTALYYCARDVTGAVRGQGTQVTVSS
notes: tested as periplasmic extract; also called 3CAH34
B6: anti-IL-12Rβ2 VHH clone 20408 (VHH, not shown: small tags and cut ends)
VHH: QVQLQESGGGSVQAGGSLRLSCGASGFTFSSFGMHWFRQAPGKGQEWVATISSSGGTTYYSDSVKGRFTISRDNAKNTLYLQMNSLKPEDTALYYCARDVTGAVRGQGTQVTVSS
notes: tested as periplasmic extract; also called 3CAHS172

Assays:
[1] = biological target: T1, human IL-12Rβ2 expressed on cells; assay: flow cytometry, periplasmic extract VHH-HA on HEK293T cells transiently expressing human IL-12Rβ2
[2] = biological target: T2, biotinylated mouse recombinant IL-12Rβ2 …; assay: ELISA, periplasmic extract on biotinylated mouse IL-12Rβ2
[3] = biological target: T2, biotinylated mouse recombinant IL-12Rβ2 …; assay: ELISA, periplasmic extract on biotinylated mouse IL-12Rβ2; signal over streptavidin control well
[4] = biological target: T3, biotinylated human recombinant IL-12Rβ2 …; assay: BLI (Octet Red), periplasmic extract on biotinylated human IL-12Rβ2 on streptavidin tips, 1:1 model
[5] = biological target: T3, biotinylated human recombinant IL-12Rβ2 …; assay: ELISA, periplasmic extract on biotinylated human IL-12Rβ2; signal over streptavidin control well
[6] = biological target: T3, biotinylated human recombinant IL-12Rβ2 …; assay: BLI (Octet Red), periplasmic extract on biotinylated human IL-12Rβ2 on streptavidin tips
[7] = biological target: T4, biotinylated recombinant human IL-12Rβ2; assay: BLI (Octet), periplasmic extract on biotinylated hIL-12Rβ2 on streptavidin tips, 1:1 model
[8] = biological target: T4, biotinylated recombinant human IL-12Rβ2; assay: BLI (Octet), periplasmic extract on biotinylated hIL-12Rβ2 on streptavidin tips
[9] = biological target: T5, biotinylated recombinant mouse IL-12Rβ2; assay: ELISA, periplasmic extract on biotinylated mIL-12Rβ2, signal over control wells
[10] = biological target: T4, biotinylated recombinant human IL-12Rβ2; assay: ELISA, periplasmic extract on biotinylated hIL-12Rβ2, signal over control wells

Row | Binder | % cells bound [1] | dMFI [1] | binding result [2] | mIL12RB2/control (ELISA) [3] | koff [4] | hIL12RB2/control (ELISA) [5] | Response [6] | koff [7] | Response [8] | ELISA binding mIL-12RB2/control [9] | ELISA binding hIL-12RB2/control [10]
1 | B1 | 50.5% | 1380 | no binding | 0.98 ratio | 0.00274 s⁻¹ | 3.65 ratio | 0.294 | – | – | – | –
2 | B2 | – | – | – | – | – | – | – | 0.00486 s⁻¹ | 0.426 | 1.38 ratio | 3.45 ratio
3 | B3 | 41.5% | 870 | no binding | 1.25 ratio | 0.00272 s⁻¹ | 7.85 ratio | 0.203 | – | – | – | –
4 | B4 | 42.1% | 941 | no binding | 1.09 ratio | 0.0034 s⁻¹ | 5.08 ratio | 0.222 | – | – | – | –
5 | B5 | – | – | – | – | – | – | – | 0.00636 s⁻¹ | 0.69 | 1.12 ratio | 5.01 ratio
6 | B6 | – | – | – | – | – | – | – | 0.00383 s⁻¹ | 0.388 | 1.11 ratio | 3.49 ratio
